Columns and labels:
[1] = target: T1, Human IL-17A重组蛋白 (IL-17A-His) (human, UniProt Q16552 24-155, biotinylated (NHS-biotin) in the ELISA of paragraph 263); experiment: BLI (ForteBio OCTET R2), IL-17A-His on the sensor, antibody 50-3.13 nM, 25℃
T1 construct: also called IL-17A抗原蛋白; IL-17抗原
T1 sequence: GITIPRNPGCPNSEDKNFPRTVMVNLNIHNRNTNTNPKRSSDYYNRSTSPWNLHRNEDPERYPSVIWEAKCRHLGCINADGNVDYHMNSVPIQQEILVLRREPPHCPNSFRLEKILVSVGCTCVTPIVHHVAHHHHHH

[2] = target: T1, Human IL-17A重组蛋白 (IL-17A-His); experiment: cell-based or functional assay
[3] = target: T1, Human IL-17A重组蛋白 (IL-17A-His); experiment: ELISA, antibody coated at 2 ug/mL, Biotin-IL-17A-His titrated from 10 ug/mL, HRP-Streptavidin

B1: Ixekizumab (antibody, human IgG4 S228P, kappa, V domains shown)
VH: QVQLVQSGAEVKKPGSSVKVSCKASGYSFTDYHIHWVRQAPGQGLEWMGVINPMYGTTDYNQRFKGRVTITADESTSTAYMELSSLRSEDTAVYYCARYDYFTGTGVYWGQGTLVTVSS
VL: DIVMTQTPLSLSVTPGQPASISCRSSRSLVHSRGNTYLHWYLQKPGQSPQLLIYKVSNRFIGVPDRFSGSGSGTDFTLKISRVEAEDVGVYYCSQSTHLPFTFGQGTKLEIKR
notes: Made in house in 293F cells from synthesised variable regions cloned into hIgG4 and hIgKc vectors; Protein A purified; also called 阳性对照抗体Ixekizumab; 阳性抗体
B1 was tested, and the Kd [1] was 0.391 nM, the “IC50 of blocking Human IL-17A activation of 293F-IL-17RA-IL-17Rc-ACT1-NFκB-Luc (luciferase activity)” value [2] was 1.36 µg/mL and the EC50 [3] was 10.1 µg/mL.
